Bridge positions count the residues as written; N and C are the ends. Ends that are not written are not given here. COCH2 = acetyl group that carries the bridge
How the values were obtained:
[1] = molecular target: T1, FGFR4 Protein, Human, Recombinant (His Tag) (Homo sapiens, UniProt P22455); test: SPR FGFR versatility, peptide immobilized; conditions: SPR binding amount at 1 μmol/L FGFR, 25° C., per one molecule of immobilized cyclic peptide
T1 construct: His; purchased Sino Biological 10538-H08H
T1 sequence (P22455 22-802): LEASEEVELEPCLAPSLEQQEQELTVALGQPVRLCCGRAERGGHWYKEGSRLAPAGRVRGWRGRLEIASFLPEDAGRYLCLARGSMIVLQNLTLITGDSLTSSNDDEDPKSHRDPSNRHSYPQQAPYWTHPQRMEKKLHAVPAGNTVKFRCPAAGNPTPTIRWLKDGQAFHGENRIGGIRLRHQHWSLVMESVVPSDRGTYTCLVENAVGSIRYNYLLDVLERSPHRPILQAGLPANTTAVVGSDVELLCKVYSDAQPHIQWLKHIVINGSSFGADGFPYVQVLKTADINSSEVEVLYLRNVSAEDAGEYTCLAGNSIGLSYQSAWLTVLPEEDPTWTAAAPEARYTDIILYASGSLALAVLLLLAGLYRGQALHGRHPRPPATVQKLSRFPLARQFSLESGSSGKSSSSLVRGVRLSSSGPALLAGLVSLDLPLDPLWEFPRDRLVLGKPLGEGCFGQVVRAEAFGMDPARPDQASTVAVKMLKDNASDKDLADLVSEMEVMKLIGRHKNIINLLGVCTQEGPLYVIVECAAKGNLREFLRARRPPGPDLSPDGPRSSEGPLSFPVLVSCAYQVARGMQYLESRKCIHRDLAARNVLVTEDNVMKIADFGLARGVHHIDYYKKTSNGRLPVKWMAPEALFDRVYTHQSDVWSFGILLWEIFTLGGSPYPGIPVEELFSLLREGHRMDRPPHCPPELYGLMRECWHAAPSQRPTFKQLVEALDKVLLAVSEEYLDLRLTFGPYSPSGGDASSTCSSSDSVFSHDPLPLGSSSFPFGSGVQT
Protocol: (§1) The binding of the cyclic peptide to various types of FGFRs was evaluated using a surface plasmon resonance (SPR) method.
(§2) A CM5 sensor chip (Cytiva, 29149603) was set in Biacore-T200 (manufactured by Cytiva) which is a surface plasmon resonance device, and an HBS-EP buffer (Cytiva, BR100826) was added as a running buffer at a flow rate of 10 μL/min to equilibrate the flow channel. Next, 70 μL of a mixed aqueous solution of 0.2 mol/L 1-(3-dimethylaminopropyl)-3-ethylcarbodiimide (EDC) and 0.05 mol/L N-hydroxysuccinimide (NHS) was added to activate the sensor chip. Then, a cyclic peptide prepared to 2 mg/mL in HBS-EP buffer was added thereto to perform immobilization at about 200 RU. Thereafter, the blocking treatment was performed with an ethanolamine solution. In addition, in another flow channel of the same sensor chip, blocking treatment was performed immediately after activation without […].
(§3) After various FGFRs (FGFR1 Protein, Human, Recombinant (His Tag) (Sino Biological, 10616-H08H), FGFR2 Protein, Human, Recombinant (His Tag) (Sino Biological, 10824-H08H), FGFR3 Protein, Human, Recombinant (ECD, His Tag) (Sino Biological, 16044-H08H), FGFR4 Protein, Human, Recombinant (His Tag) (Sino Biological, 10538-H08H)) diluted with HBS-EP to 1 μmol/L at 25° C. was added to each flow channel of the cyclic peptide-immobilized sensor chip prepared above, for 10 minutes, HBS-EP was allowed to flow as a running buffer for 30 minutes, and the binding of various FGFRs to the cyclic peptide was measured. Thereafter, a regeneration treatment of removing the bound FGFR was performed by repeating the flow of a regeneration liquid in which sodium chloride (final concentration: 0.4 mol/L) and a sodium dodecyl sulfate aqueous solution (mixed concentration: 1%, final concentration: 0.2%) were dissolved in Glysine 1.5 (Cytiva, BR100354) for 1 minute in each flow channel twice. The binding amount of the cyclic peptide was evaluated from the difference between the measured value of Biacore-T200 in the flow channel in which the cyclic peptide was immobilized and the measured value of Biacore-T200 in the flow channel in which the cyclic peptide was not immobilized, in a case where 1 μmol/L FGFR was allowed to flow.
(§4) The binding amount of FGFR evaluated above was normalized to the binding amount of FGFR molecules per one molecule of the cyclic peptide using the molecular weights of the cyclic peptide and FGFR, and the binding affinity to FGFR was evaluated according to the following evaluation criteria. The evaluation result preferably satisfies the evaluation criteria A, B, or C.

[2] = molecular target: T2, FGFR2 Protein, Human, Recombinant (His Tag) (Homo sapiens, UniProt P21802); test: SPR FGFR versatility, peptide immobilized; conditions: SPR binding amount at 1 μmol/L FGFR, 25° C., per one molecule of immobilized cyclic peptide
T2 construct: His; purchased Sino Biological 10824-H08H
T2 sequence (P21802 22-821): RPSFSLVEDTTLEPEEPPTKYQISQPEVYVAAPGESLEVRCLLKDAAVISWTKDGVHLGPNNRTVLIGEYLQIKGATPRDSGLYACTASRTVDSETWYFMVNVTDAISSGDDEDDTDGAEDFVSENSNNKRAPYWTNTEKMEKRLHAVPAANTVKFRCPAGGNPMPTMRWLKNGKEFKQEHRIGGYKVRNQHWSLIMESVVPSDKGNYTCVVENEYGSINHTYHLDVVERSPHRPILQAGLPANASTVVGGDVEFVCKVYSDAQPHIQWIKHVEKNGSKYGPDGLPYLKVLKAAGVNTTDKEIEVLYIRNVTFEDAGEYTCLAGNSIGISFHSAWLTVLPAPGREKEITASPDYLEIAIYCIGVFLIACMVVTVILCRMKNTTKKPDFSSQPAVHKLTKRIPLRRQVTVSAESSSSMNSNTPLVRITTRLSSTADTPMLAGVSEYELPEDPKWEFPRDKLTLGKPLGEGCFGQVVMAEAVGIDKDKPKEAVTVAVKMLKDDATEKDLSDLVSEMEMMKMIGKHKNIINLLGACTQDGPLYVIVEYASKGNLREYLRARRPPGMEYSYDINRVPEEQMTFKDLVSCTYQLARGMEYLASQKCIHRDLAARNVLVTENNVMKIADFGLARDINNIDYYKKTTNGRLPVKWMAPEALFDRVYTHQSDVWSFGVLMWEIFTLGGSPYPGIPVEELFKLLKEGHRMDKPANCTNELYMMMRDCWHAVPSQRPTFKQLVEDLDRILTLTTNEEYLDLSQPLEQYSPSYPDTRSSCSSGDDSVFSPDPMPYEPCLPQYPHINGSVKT
Protocol: as §1, §2, §3, §4

[3] = molecular target: T3, FGFR1 Protein, Human, Recombinant (His Tag) (Homo sapiens, UniProt P11362); test: SPR FGFR versatility, peptide immobilized; conditions: SPR binding amount at 1 μmol/L FGFR, 25° C., per one molecule of immobilized cyclic peptide
T3 construct: His; purchased Sino Biological 10616-H08H
T3 sequence (P11362 22-822): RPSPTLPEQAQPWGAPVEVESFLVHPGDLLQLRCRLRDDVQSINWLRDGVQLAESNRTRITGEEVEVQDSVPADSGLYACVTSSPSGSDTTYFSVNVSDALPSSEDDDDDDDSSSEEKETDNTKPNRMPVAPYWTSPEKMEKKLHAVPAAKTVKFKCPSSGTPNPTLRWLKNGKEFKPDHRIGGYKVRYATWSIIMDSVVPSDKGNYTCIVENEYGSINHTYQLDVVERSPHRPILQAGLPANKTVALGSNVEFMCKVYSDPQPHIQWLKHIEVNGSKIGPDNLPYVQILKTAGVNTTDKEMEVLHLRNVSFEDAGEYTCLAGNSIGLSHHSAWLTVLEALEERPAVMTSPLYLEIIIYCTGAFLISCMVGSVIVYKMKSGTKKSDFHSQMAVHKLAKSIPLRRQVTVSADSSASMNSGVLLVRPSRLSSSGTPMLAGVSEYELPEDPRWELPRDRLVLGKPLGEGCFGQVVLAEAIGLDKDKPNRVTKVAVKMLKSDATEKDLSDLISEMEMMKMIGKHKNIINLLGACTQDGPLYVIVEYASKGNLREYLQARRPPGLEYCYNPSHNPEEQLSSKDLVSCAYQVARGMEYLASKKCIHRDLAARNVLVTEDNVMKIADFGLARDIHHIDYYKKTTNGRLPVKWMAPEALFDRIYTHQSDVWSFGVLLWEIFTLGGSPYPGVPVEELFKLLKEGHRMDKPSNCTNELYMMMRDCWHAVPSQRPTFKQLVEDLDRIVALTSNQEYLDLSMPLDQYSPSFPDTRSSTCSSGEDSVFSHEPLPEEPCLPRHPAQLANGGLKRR
Protocol: as §1, §2, §3, §4

[4] = molecular target: T4, FGFR3 Protein, Human, Recombinant (ECD, His Tag) (Homo sapiens, UniProt P22607); test: SPR FGFR versatility, peptide immobilized; conditions: SPR binding amount at 1 μmol/L FGFR, 25° C., per one molecule of immobilized cyclic peptide
T4 construct: FGFR3 Protein, Human, Recombinant (ECD, His Tag) (Sino Biological, 16044-H08H); His; purchased Sino Biological 16044-H08H
T4 sequence (P22607 23-375 limits assumed): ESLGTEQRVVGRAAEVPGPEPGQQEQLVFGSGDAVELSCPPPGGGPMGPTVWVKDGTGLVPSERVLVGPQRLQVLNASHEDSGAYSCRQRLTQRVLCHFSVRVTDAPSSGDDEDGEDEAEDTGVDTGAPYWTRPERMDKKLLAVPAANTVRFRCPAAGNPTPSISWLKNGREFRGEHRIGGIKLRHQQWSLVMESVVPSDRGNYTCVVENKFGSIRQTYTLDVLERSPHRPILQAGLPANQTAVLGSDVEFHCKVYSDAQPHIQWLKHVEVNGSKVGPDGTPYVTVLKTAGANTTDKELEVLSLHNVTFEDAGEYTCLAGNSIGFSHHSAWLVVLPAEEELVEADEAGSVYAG
Protocol: as §1, §2, §3, §4

[5] = molecular target: T5, Recombinant Human FGFR2 alpha (IIIc) Fc Chimera Protein (Homo sapiens, UniProt P21802); test: SPR binding affinity of chemically synthesized cyclic peptide to immobilized FGFR; conditions: SPR binding amount at 10 nmol/L cyclic peptide, 25° C., per one molecule of FGFR; chemically synthesized product
T5 construct: Fc (chimera); purchased R&D systems 712-FR-050
T5 sequence (P21802 with tags, fused parts or gaps limits assumed): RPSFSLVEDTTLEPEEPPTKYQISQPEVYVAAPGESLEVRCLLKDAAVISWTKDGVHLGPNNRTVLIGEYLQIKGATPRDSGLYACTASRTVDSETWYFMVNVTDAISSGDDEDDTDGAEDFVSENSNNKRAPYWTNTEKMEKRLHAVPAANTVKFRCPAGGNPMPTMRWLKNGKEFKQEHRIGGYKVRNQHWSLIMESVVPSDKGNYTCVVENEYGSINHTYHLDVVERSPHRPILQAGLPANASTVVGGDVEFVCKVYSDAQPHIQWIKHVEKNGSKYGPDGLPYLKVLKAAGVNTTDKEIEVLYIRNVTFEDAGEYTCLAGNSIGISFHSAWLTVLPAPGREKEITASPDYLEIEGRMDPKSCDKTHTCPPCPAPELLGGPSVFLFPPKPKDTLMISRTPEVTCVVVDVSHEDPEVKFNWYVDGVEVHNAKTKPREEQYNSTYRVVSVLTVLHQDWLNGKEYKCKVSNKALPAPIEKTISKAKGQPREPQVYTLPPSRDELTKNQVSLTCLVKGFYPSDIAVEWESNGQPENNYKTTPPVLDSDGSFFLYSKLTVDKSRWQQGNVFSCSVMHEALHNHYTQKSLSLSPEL
Protocol: The binding affinity of the cyclic peptide to FGFR was evaluated using a surface plasmon resonance (SPR) method.
A CM5 sensor chip (Cytiva, 29149603) was set in Biacore-T200 (manufactured by Cytiva) which is a surface plasmon resonance device, and an HBS-EP buffer (Cytiva, BR100826) was added as a running buffer at a flow rate of 10 μL/min to equilibrate the flow channel. Next, 70 μL of a mixed aqueous solution of 0.2 mol/L 1-(3-dimethylaminopropyl)-3-ethylcarbodiimide (EDC) and 0.05 mol/L N-hydroxysuccinimide (NHS) was added to activate the sensor chip. Then, Recombinant Human FGFR2 alpha (IIIc) Fc Chimera Protein CF (R&D systems, 712-FR-050) prepared at 50 nmol/L in an Acetate 4.5 buffer (Cytiva, BR100350) was added thereto to perform immobilization at about 5000 RU. Thereafter, the blocking treatment was performed with an ethanolamine solution. In addition, in another flow channel of the same sensor chip, blocking treatment was performed immediately after activation without immobilizing FGFR.
A cyclic peptide diluted to 10 nmol/L using HBS-EP was added to each flow channel of the FGFR-immobilized sensor chip produced above at 25° C. for 10 minutes, then HBS-EP was allowed to flow as a running buffer for 30 minutes, and the binding of the cyclic peptide to FGFR was measured. Thereafter, a regeneration treatment of removing the bound cyclic peptide was performed by repeating the flow of a regeneration liquid in which sodium chloride powder was dissolved in Glysine 1.5 (Cytiva, BR100354) to a final concentration of 0.15 mol/L for 1 minute in each flow channel twice. The binding amount of the cyclic peptide was evaluated from the difference between the measured value of Biacore-T200 in the flow channel in which FGFR was immobilized and the measured value of Biacore-T200 in the flow channel in which FGFR was not immobilated, in a case where a 10 nmol/L cyclic peptide was allowed to flow.
The binding amount of the cyclic peptide evaluated above was normalized to the binding amount of the cyclic peptide molecules per one molecule of FGFR using the molecular weights of the cyclic peptide and FGFR, and the binding affinity to FGFR was evaluated according to the following evaluation criteria. The evaluation result preferably satisfies the evaluation criteria A, B, or C.

[6] = Molecular stability after reducing agent (DTT) treatment, LC; assay type: physicochemical; conditions: residual rate after DTT aqueous solution, room temperature, 1 hour
Protocol: The molecular stability of the cyclic peptide was evaluated by analyzing an aqueous solution of the cyclic peptide treated with a reducing agent by liquid chromatography (LC).
The reducing agent treatment was performed under the following conditions based on the concentration of glutathione contained in the cells. 25 μL of a 0.2 mg/mL cyclic peptide aqueous solution was prepared, 58.8 μL of a 12.6 mmol/L DTT aqueous solution was added to the aqueous solution, and the mixture was incubated at room temperature for 1 hour to obtain an aqueous solution of the cyclic peptide treated with a reducing agent. The DTT aqueous solution was used by diluting a 1 mol/L (+−)-dithiothreitol (DTT) solution (FUJIFILM Wako Pure Chemical Corporation, 044-33871) with water. The total area of all the peaks in LC/MS of the cyclic peptide before the reducing agent treatment was set to 100%, and the proportion of the total area of all the peaks in LC/MS of the aqueous solution of the cyclic peptide treated with the reducing agent was determined to calculate the residual rate of the cyclic peptide, and the molecular stability was evaluated according to the following evaluation criteria. The evaluation result preferably satisfies the evaluation criteria A, B, or C.
The LC used for the evaluation of molecular stability was set to the following conditions. • LC device: Prominence series (pump, column oven, autosampler, detector) (manufactured by Shimadzu Corporation) • Detector: photodiode array detector (SPD-M20A), measurement wavelength of 280 nm • Column: TSKgel ODS-100V, inner diameter of 4.6 mm×length of 150 mm, particle diameter of 5 μm (manufactured by Tosoh Corporation) • Eluent A: solution containing 0.1% trifluoroacetic acid as solute, and solvent is 100% water • Eluent B: solution containing 0.1% trifluoroacetic acid as solute, and solvent is 100% acetonitrile • Flow rate: 1.0 mL/min • Injection amount: 25 μL • Gradient: 20% to 50%: Eluent B (0 to 15 minutes), 100%: Eluent B (15 minutes) • Column temperature: 40° C.

450 (YCEENYLDPEQYQYFIYFK(COCH2)YKKK; thioether 2-19) [compound 450]
Evaluation result of binding affinity to FGFR4 [1]: B (The binding amount is 0.01 molecules of FGFR/one molecule of the cyclic peptide or more and less than 0.05 molecules of FGFR/one molecule of the cyclic peptide.) | Evaluation result of binding affinity F GFR2 [2]: A (The binding amount is 0.05 molecules of FGFR/one molecule of the cyclic peptide or more.) | Evaluation result of binding affinity to FGFR1 [3]: B (The binding amount is 0.01 molecules of FGFR/one molecule of the cyclic peptide or more and less than 0.05 molecules of FGFR/one molecule of the cyclic peptide.) | Evaluation result of binding affinity to FGFR3 [4]: B (The binding amount is 0.01 molecules of FGFR/one molecule of the cyclic peptide or more and less than 0.05 molecules of FGFR/one molecule of the cyclic peptide.) | Evaluation result of binding affinity to FGFR [5]: A (The binding amount is 0.7 molecules of the cyclic peptide/one molecule of FGFR or more.) | Evaluation result of reductive stability [6]: B (The residual rate of the cyclic peptide is 70% or more and less than 90%)

Reference: patent US20260008815A1, “CYCLIC PEPTIDE OR SALT THEREOF, AND USES THEREOF” (FUJIFILM Corporation, priority 2023, published 2026)
